Reference: publication PMC8546591, “Neodymium as Metal Cofactor for Biological Methanol Oxidation: Structure and Kinetics of an XoxF1-Type Methanol Dehydrogenase” (mBio, 2021)

How the values were obtained:
[1] = system: C=O; assay: purified protein; conditions: pH 7, 45°C, 1 mM PES, 100 μM DCPIP, 200 nM enzyme, no ammonium, first 2 min, formaldehyde from dissolved paraformaldehyde
[2] = system: CO; assay: purified protein; conditions: pH 7, 45°C, 1 mM PES, 100 μM DCPIP, 200 nM enzyme, no ammonium, first 2 min

Nd-XoxF1 (XoxF1-type methanol dehydrogenase) (Methylacidimicrobium sp. AP8)
Km [1]: 1.6 ± 0.8 µM
Km [2]: 1.4 ± 0.6 µM
